Key:
Assay in all cases: NMR titration
Cx45CT (K265-I396) = Cx45CT (K265-I396) (UniProt P28229)
Cx43CT (S255-I382) = Cx43CT (S255-I382) (UniProt P08050)
Cx40CT (S251-V355) = target: Cx40CT (S251-V355)

Sequence of UniProt P28229 (P28229 265-396): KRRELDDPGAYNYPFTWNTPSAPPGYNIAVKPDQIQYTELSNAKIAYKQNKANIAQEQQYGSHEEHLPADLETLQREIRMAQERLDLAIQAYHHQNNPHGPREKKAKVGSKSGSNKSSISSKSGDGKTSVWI
Sequence of UniProt P08050 (P08050 255-382): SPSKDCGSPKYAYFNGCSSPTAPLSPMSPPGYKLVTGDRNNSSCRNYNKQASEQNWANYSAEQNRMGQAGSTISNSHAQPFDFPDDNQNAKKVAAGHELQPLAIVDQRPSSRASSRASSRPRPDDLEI

Kd (Cx45CT (K265-I396)): 286 µM | Kd (Cx43CT (S255-I382)): 278 µM | Kd (Cx40CT (S251-V355)): 600 µM
Substance: UBA domain of CIP75 (M549-S596) (from UniProt Q99NB8 549-596) (domain or fragment)
